From patent publication US20140294821

Assays:
[1] = tested on: rBDD FVIII (recombinant B-domain deleted FVIII lacking Fc moieties)
[2] = tested on: rFVIIIFc (recombinant B-domain deleted human FVIII-Fc monomer hybrid), drug substance
[3] = tested on: single chain rFVIIIFc (purified non-processed isoform of rFVIIIFc)

## activated Factor IX
[1]
  FXa generation rate (nM/min) against FIXa concentration (Xase complex on phospholipid vesicles): BDD FVIII (triangles, solid Kd fits, two runs): rate rises from about 0.2 nM/min at about 0.25 nM FIXa to about 2.5 to 2.7 nM/min at about 5.6 nM, points at 8 nM about 2.0 to 2.1; the fits still rise at 8 nM (about 2.5 to 2.6), no upper plateau in the range shown
  Km (nM) (called Kd in the text) of FXa generation rate as a function of FIXa concentration (thrombin-activated FVIII, 25% PS-75% PC vesicles): 2.5 nM
  Vmax (nM/min) of FXa generation rate as a function of FIXa concentration: 4 nM/min
[2]
  FXa generation rate (nM/min) against FIXa concentration (Xase complex on phospholipid vesicles): FVIIIFc (circles, dashed Kd fits, two runs): rate rises from about 0.2 nM/min at about 0.25 nM FIXa to about 2.8 to 3.2 nM/min at 4 to 8 nM; the fits still rise at 8 nM (about 3.3), no upper plateau in the range shown

## human α-thrombin
[1]
  loss of SPR response of vWF-bound rBDD FVIII after α-thrombin (double reference-subtracted release phase): response falls faster and deeper with rising α-thrombin (0.005 to 20 U/mL): at 20 U/mL to about -415 RU at 120 s at 25 °C and to about -425 RU at 37°C; the lowest concentrations stay within about -60 RU of 0
  release rate (RU/s) of rBDD FVIII from immobilized vWF against time, by α-thrombin concentration: peak release rate grows and comes earlier with rising α-thrombin: uppermost trace (20 U/mL) peaks at about 105 RU/s near 2 s at 25 °C and at about 157 RU/s near 2 s at 37 °C
[3]
  release rate (RU/s) of SC rFVIIIFc from immobilized vWF against time, by α-thrombin concentration: peak release rate grows with rising α-thrombin: uppermost trace (20 U/mL) peaks at about 112 RU/s near 3 s at 37°C; the 25 °C panel as drawn peaks at about 145 RU/s near 3 s and looks the same as the rFVIIIFc 25 °C panel, which does not agree with Figure 16E (about 82 RU/s at 20 U/mL)
[2]
  release rate (RU/s) of rFVIIIFc from immobilized vWF against time, by α-thrombin concentration: peak release rate grows and comes earlier with rising α-thrombin: uppermost trace (20 U/mL) peaks at about 145 RU/s near 3 s at 25 °C and at about 205 RU/s near 2 s at 37 °C

## activated protein C
[1]
  FXa generation rate after thrombin activation and incubation with APC: Treatment with APC for 90 min led to a significant decrease in FXa generation rates, similar to non-activated samples, and these results were similar for rFVIIIFc DS, rBDD FVIII, and single chain rFVIIIFc
[3]
  FXa generation rate after thrombin activation and incubation with APC: Treatment with APC for 90 min led to a significant decrease in FXa generation rates, similar to non-activated samples, and these results were similar for rFVIIIFc DS, rBDD FVIII, and single chain rFVIIIFc
[2]
  FXa generation rate after thrombin activation and incubation with APC: Treatment with APC for 90 min led to a significant decrease in FXa generation rates, similar to non-activated samples, and these results were similar for rFVIIIFc DS, rBDD FVIII, and single chain rFVIIIFc
